From publication PMC7305210, “Mitochondria-adaptor TRAK1 promotes kinesin-1 driven transport in crowded environments” (Nature Communications, 2020)

B1: mCherry-labelled full-length TRAK1 (natural protein, UniProt Q9UPV9-1 1-953, looked up)
chain: MALVFQFGQPVRAQPLPGLCHGKLIRTNACDVCNSTDLPEVEIISLLEEQLPHYKLRADTIYGYDHDDWLHTPLISPDANIDLTTEQIEETLKYFLLCAERVGQMTKTYNDIDAVTRLLEEKERDLELAARIGQSLLKKNKTLTERNELLEEQVEHIREEVSQLRHELSMKDELLQFYTSAAEESEPESVCSTPLKRNESSSSVQNYFHLDSLQKKLKDLEEENVVLRSEASQLKTETITYEEKEQQLVNDCVKELRDANVQIASISEELAKKTEDAARQQEEITHLLSQIVDLQKKAKACAVENEELVQHLGAAKDAQRQLTAELRELEDKYAECMEMLHEAQEELKNLRNKTMPNTTSRRYHSLGLFPMDSLAAEIEGTMRKELQLEEAESPDITHQKRVFETVRNINQVVKQRSLTPSPMNIPGSNQSSAMNSLLSSCVSTPRSSFYGSDIGNVVLDNKTNSIILETEAADLGNDERSKKPGTPGTPGSHDLETALRRLSLRRENYLSERRFFEEEQERKLQELAEKGELRSGSLTPTESIMSLGTHSRFSEFTGFSGMSFSSRSYLPEKLQIVKPLEGSATLHHWQQLAQPHLGGILDPRPGVVTKGFRTLDVDLDEVYCLNDFEEDDTGDHISLPRLATSTPVQHPETSAHHPGKCMSQTNSTFTFTTCRILHPSDELTRVTPSLNSAPTPACGSTSHLKSTPVATPCTPRRLSLAESFTNTRESTTTMSTSLGLVWLLKERGISAAVYDPQSWDRAGRGSLLHSYTPKMAVIPSTPPNSPMQTPTSSPPSFEFKCTSPPYDNFLASKPASSILREVREKNVRSSESQTDVSVSNLNLVDKVRRFGVAKVVNSGRAHVPTLTEEQGPLLCGPPGPAPALVPRGLVPEGLPLRCPTVTSAIGGLQLNSGIRRNRSFPTMVGSSMQMKAPVTLTSGILMGAKLSKQTSLR
notes: TRAK1 (trafficking kinesin protein 1), cDNA KIAA1042 from the Kazusa DNA Research Institute; 953 residues by the printed region 636-953; also called mCherry-TRAK1; trafficking kinesin protein 1; source: HEK293T cells, transfected, purified (StrepTactinXT, eluted by TEV cleavage of the N-terminal tag, Superose 6 SEC); not shown: mCherry, N-terminal, kept; TwinStrep-FLAG-Halo, N-terminal, cleaved
B2: GFP-labelled KIF5B∆ (KIF5B without the inhibitory domain, amino acids 906-963) (domain or fragment, human, UniProt P33176 1-905, looked up)
chain: MADLAECNIKVMCRFRPLNESEVNRGDKYIAKFQGEDTVVIASKPYAFDRVFQSSTSQEQVYNDCAKKIVKDVLEGYNGTIFAYGQTSSGKTHTMEGKLHDPEGMGIIPRIVQDIFNYIYSMDENLEFHIKVSYFEIYLDKIRDLLDVSKTNLSVHEDKNRVPYVKGCTERFVCSPDEVMDTIDEGKSNRHVAVTNMNEHSSRSHSIFLINVKQENTQTEQKLSGKLYLVDLAGSEKVSKTGAEGAVLDEAKNINKSLSALGNVISALAEGSTYVPYRDSKMTRILQDSLGGNCRTTIVICCSPSSYNESETKSTLLFGQRAKTIKNTVCVNVELTAEQWKKKYEKEKEKNKILRNTIQWLENELNRWRNGETVPIDEQFDKEKANLEAFTVDKDITLTNDKPATAIGVIGNFTDAERRKCEEEIAKLYKQLDDKDEEINQQSQLVEKLKTQMLDQEELLASTRRDQDNMQAELNRLQAENDASKEEVKEVLQALEELAVNYDQKSQEVEDKTKEYELLSDELNQKSATLASIDAELQKLKEMTNHQKKRAAEMMASLLKDLAEIGIAVGNNDVKQPEGTGMIDEEFTVARLYISKMKSEVKTMVKRCKQLESTQTESNKKMEENEKELAACQLRISQHEAKIKSLTEYLQNVEQKKRQLEESVDALSEELVQLRAQEKVHEMEKEHLNKVQTANEVKQAVEQQIQSHRETHQKQISSLRDEVEAKAKLITDLQDQNQKMMLEQERLRVEHEKLKATDQEKSRKLHELTVMQDRREQARQDLKGLEETVAKELQTLHNLRKLFVQDLATRVKKSAEIDSDDTGGSAAQKQKISFLENNLEQLTKVHKQLVRDNADLRCELPKLEKRLRATAERVKALESALKEAKENASRDRKRYQQEVDRIKEA
notes: Constitutively active construct; also called KIF5B∆-GFP; source: SF9 insect cells (FlexiBAC baculovirus), purified (Ni-NTA, 6xHis cleaved by 3C PreScission protease, second Ni-NTA); not shown: GFP, C-terminal, kept; 6xHis, C-terminal, cleaved
B3: unlabelled KIF5B∆ (domain or fragment, human, UniProt P33176 1-905, looked up)
chain: B2 chain
notes: KIF5B, kinesin-1 heavy chain, human, amino acids 1-905; The methods describe only vectors with a C-terminal fluorescent tag; also called recombinant KIF5B∆; source: SF9 insect cells (all KIF5B constructs), purified

How the values were obtained:
[1] = biological target: B2; assay: single-molecule fluorescence intensity distributions (TIRF) with labelling efficiencies from SEC absorption; intensity distributions of KIF5B∆-mCherry compared with mCherry-TRAK1 in the motility experiments; labelling efficiencies about 22% and about 88%; settings: both partners purified
[2] = biological target: the molecule itself; assay: as above
[3] = biological target: B1; assay: single-molecule TIRF microscopy, two-colour co-movement on immobilised microtubules; KIF5B construct and 175 nM TRAK1 construct pre-incubated 10 min on ice, flushed onto bare immobilised microtubules in motility buffer with 1 mM Mg-ATP; room temperature; for the complexes traces of the mCherry-TRAK1 channel analysed; settings: both partners purified
[4] = biological target: B1; assay: TIRF microscopy, reconstituted transport of mitochondria on immobilised microtubules; 2 nM unlabeled KIF5B∆, 100 nM mCherry-TRAK1 and 10 µg isolated mitochondria-GFP (4T1 cells) pre-incubated on ice, flushed onto immobilised microtubules; room temperature; settings: both partners purified

B1 was tested, and the “stoichiometry N” value [1] was 1 TRAK1 dimer per KIF5B dimer and the “stoichiometry N” value [2] was 2.

In the case of B2, the binding result [3] is reported as “binds” and the “stoichiometry N” value [2] is reported as 2.

B3: binds [4].
